Experiment [1] addresses T1, BISP (purified from insect cells) (Nilaparvata lugens (brown planthopper)).
T1 construct: probably this one too; source: SF9 insect cells (baculovirus), purified (Ni-NTA, dialysed in PBS)
Nature of the experiment: BLI; Octet RED96; biotinylated LRR or N14–LRR (20 μg/ml) on streptavidin biosensors, BISP, BISP(26–124) or BISP(125–241) in solution at different concentrations; PBS pH 7.4 with 0.05% Tween 20 and 0.5% BSA; 25 °C; association 180 s, dissociation 180 s; global fit. The conditions noted are these: both partners purified.

Experiment [2] has as its target T2, BISP(26–124) (purified from insect cells) (Nilaparvata lugens (brown planthopper)).
T2 construct: source: SF9 insect cells (baculovirus), purified (Ni-NTA, dialysed in PBS)
The experiment is described as above. The conditions noted are these: both partners purified.

B1: BPH14–LRR (purified from insect cells) (domain or fragment)
chain: SGDRPEAIRTPSPEKGYPGIQTLICSRFKYLQNVSKYRSLRVLTTMWEGSFLIPKYHHHLRYLDLSESEIKALPEDISILYHLQTLNLSRCLSLRRLPKGMKYMTALRHLYTHGCWSLGSMPPDLGHLTCLQTLTCFVAGTCSGCSDLGELRQLDLGGRLELRKLENVTKADAKAANLGKKEKLTKLTLIWTDQEYKEAQSNNHKEVLEGLTPHEGLKVLSIYHCGSSTCPTWMNKLRDMVGLELNGCKNLEKLPPLWQLPALQVLCLEGLGSLNCLFNCDTHTPFTFCRLKELTLSDMTNFETWWDTNEVQGEELMFPEVEKLSIESCHRLTALPKASNAISESSGEVSTVCRSAFPALKEMKLYDLRIFQKWEAVDGTPREEATFPQLDKLEIRQCPELTTLPEAPKLSDLEISKGNQQISLQAASRHITSLSSLVLHLSTDDTETASVAKQQDSSDLVIEDEKWSHKSPLELMVLSRCNLLFSHPSALALWTCFAQLLDLKIRYVDALVSWPEEVFQGLVSLRKLEISVCENLTGHTQARGQSTPAPSELLPRLESLEITCCDSIVEVPNLPASLKLLEIRGCPGLESIVFNQQQDRTMLVSAESFAEQDKSSLISGSTSETNDHVLPRLESLVINWCDRLEVLHLPPSIKKLGIYSCEKLRSLSVKLDAVRELSIRHCGSLKSLESCLGELASLQQLKLFDCKSLESLPKGPQAYSSLTSLEIRGCSGIKVLPPSLQQRLDDIEDKELDACYEEAEAEPKSRHRQSAISRLMCLK
modifications: biotin (NHS-biotin) in the BLI assays; RED-NHS 2nd Generation dye in the MST assays
What is called Kd is the free concentration of one partner at which half of the binding sites on the other are occupied at equilibrium, for simple one-to-one binding. With B1, the Kd in experiment [1] turned out to be 32.1 nM; in experiment [2], 127 nM.
